In assay [1] the target is NCoA1 (Homo sapiens) (UniProt Q15788). In words: fluorescence polarization. Conditions: cited from earlier work. On the technique in general: Fluorescence polarisation rises when a labelled molecule tumbles more slowly, as on binding a larger partner.
Assay [2] shares this target. In words: competitive fluorescence polarization. The following applies: cited from earlier work.
Assay [3] addresses T1, NCoA1 PAS-B domain 257-385 (nuclear coactivator 1) (UniProt Q15788 257-385).
T1 construct: Used unlabeled or 15N / 15N-13C labeled in the NMR samples
T1 sequence (looked up): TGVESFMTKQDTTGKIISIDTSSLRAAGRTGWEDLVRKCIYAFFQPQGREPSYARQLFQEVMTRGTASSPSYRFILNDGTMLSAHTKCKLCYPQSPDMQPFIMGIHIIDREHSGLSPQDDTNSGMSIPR
In words: crystal structure; X-ray structure of the NCoA-1 PAS-B domain in complex with the STAT6 783-814 peptide (PDB 5NWX); peptide added in 1.5 fold molar excess, complex purified by gel filtration (Superdex 75). Conditions: both partners purified. Background: Size exclusion chromatography separates by hydrodynamic size, large species first.

We go through 3 molecules from PMC5714956, “Insight into the molecular recognition mechanism of the coactivator NCoA1 by STAT6” (Scientific Reports, 2017).

Sequence of NCoA1 (Homo sapiens) (Q15788 2-1441): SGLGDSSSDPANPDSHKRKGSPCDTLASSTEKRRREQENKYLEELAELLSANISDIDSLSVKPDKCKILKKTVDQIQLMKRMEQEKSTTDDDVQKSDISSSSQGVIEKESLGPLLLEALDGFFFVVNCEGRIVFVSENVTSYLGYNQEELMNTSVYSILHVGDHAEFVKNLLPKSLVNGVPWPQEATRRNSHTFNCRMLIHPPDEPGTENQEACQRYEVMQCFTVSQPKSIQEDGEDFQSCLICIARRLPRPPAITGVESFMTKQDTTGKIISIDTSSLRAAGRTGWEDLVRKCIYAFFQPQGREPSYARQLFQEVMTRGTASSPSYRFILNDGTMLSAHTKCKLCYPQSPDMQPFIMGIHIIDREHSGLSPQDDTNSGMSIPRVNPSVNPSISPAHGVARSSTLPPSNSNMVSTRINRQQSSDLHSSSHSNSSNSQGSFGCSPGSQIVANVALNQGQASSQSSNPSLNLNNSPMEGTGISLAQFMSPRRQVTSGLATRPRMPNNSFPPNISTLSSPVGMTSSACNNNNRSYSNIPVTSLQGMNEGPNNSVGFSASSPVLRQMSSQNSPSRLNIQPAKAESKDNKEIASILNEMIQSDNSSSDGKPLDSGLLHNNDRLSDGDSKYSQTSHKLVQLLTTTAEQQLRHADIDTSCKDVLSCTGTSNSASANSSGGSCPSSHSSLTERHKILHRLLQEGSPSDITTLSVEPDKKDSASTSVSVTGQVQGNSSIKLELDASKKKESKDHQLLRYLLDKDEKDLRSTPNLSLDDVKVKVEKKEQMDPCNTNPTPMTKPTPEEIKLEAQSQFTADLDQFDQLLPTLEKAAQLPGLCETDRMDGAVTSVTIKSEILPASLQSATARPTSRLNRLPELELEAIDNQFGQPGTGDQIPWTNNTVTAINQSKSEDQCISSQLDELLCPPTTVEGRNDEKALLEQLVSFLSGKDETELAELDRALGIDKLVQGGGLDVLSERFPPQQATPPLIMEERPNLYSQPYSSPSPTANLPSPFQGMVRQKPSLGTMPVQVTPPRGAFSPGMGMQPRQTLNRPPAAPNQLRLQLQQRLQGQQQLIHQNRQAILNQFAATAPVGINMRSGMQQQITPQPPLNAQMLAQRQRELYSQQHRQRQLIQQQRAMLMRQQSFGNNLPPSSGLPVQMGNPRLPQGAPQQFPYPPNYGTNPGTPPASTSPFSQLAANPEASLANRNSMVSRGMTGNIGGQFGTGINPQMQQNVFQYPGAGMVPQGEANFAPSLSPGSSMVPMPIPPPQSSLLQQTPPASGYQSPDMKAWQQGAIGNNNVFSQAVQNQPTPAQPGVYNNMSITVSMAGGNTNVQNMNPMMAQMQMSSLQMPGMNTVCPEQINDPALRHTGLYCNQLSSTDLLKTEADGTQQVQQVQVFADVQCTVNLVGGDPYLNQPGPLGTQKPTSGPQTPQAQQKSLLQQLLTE

As usually defined, the Kd is the free concentration of one partner at which half of the binding sites on the other are occupied at equilibrium, for simple one-to-one binding. The Ki is a measure of affinity in units of concentration, obtained from inhibition or displacement. For the molecule STAT6 783-814 (from UniProt P42226), the Kd in the assay with NCoA1 (Homo sapiens) [1] is 0.04 µM. The Ki with NCoA1 (Homo sapiens) [2] is 0.04 µM.
For STAT6 794-814 (from UniProt P42226), the dissociation constant Kd in the assay with NCoA1 (Homo sapiens) [1] was 0.32 µM. The Ki with NCoA1 (Homo sapiens) [2] was 0.26 µM.

B1: STAT6 peptide 783-814 (fragment of the STAT6 transactivation domain with the LXXLL motif) (peptide, UniProt P42226 783-814, looked up)
chain: GTWIGEDIFPPLLPPTEQDLTKLLLEGQGESG
notes: The His7-tag probably left with the Z-tag (the Z-tag was removed on Ni-NTA resin after TEV cleavage); Used unlabeled or 15N / 15N-13C labeled in the NMR samples; source: produced recombinantly, purified (TEV cleavage, Ni-NTA, reversed phase HPLC); not shown: Z-tag, N-terminal, cleaved
As to B1, the binding result in assay [3] is listed as “binds”.
